What was measured:
[1] = biological target: TRPML3 (not stated (human or mouse cDNA cloned)) (UniProt Q8R4F0); experiment: FRET or BRET; acceptor photobleaching FRET in transiently transfected HEK293 cells; C-terminal CFP and YFP fusions; FRET efficiency from the recovery of CFP fluorescence during YFP photobleaching
TRPML3 = biological target: T1, TRPML3 ( (human or mouse cDNA cloned), UniProt Q8R4F0 1-553); experiment: as above; details: partners not purified
T1 construct: TRPML3 cation channel; pcDNA3.1 plasmids held full-length mouse TRPML3 (NM_134160) and human TRPML3 (NM_018298); 'full-length' is printed for the mouse cDNA; Stood as CFP fusion and as YFP fusion in the FRET pairs; also called mucolipin 3; source: HEK293, transiently transfected, in cells; not shown: YFP or CFP, C-terminal, kept
T1 sequence (looked up): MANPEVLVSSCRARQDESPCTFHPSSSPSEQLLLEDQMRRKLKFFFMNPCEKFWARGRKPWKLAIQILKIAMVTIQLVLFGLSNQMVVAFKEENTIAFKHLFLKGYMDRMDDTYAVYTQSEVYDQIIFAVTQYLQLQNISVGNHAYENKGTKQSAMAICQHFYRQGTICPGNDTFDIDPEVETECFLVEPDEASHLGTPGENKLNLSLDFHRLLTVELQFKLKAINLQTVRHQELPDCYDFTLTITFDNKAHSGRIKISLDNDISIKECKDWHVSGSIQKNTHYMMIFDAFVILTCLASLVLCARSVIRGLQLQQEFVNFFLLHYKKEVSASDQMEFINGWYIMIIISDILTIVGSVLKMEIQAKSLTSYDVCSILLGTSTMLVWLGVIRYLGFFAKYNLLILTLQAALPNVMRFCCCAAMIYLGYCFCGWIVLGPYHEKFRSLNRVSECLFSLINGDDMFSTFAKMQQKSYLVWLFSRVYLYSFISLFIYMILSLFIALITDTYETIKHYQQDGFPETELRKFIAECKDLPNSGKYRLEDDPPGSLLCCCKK

TRPV5 (mouse) [2] = biological target: TRPV5 (mouse) (UniProt P69744)
TRPV5 (mouse) [3] = biological target: TRPV5 (mouse) (UniProt P69744); remark: listed apart in the source

Sequence of TRPV5 (mouse) (P69744 whole entry): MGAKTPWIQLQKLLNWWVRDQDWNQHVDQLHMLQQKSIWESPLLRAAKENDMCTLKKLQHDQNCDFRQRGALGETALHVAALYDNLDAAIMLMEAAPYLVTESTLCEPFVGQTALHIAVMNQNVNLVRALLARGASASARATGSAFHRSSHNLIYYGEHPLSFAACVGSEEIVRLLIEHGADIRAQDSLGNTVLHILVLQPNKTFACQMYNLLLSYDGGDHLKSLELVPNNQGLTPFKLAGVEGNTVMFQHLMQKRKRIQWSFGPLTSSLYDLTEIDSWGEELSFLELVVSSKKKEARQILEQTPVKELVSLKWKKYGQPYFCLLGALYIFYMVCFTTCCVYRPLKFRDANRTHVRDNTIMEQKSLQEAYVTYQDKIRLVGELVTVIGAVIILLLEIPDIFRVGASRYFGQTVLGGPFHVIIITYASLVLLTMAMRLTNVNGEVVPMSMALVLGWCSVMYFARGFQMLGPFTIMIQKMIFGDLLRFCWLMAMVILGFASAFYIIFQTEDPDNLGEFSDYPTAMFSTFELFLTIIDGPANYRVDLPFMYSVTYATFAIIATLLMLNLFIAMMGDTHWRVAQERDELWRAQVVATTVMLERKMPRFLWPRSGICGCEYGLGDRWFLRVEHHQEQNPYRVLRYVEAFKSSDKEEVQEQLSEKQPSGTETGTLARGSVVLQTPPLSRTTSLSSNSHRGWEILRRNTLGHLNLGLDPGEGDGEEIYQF

Molecule: YFP alone
- FRET efficiency [1]: < 5%

B1: TRPC6 (natural protein, UniProt Q9Y210 1-931, looked up)
chain: MSQSPAFGPRRGSSPRGAAGAAARRNESQDYLLMDSELGEDGCPQAPLPCYGYYPCFRGSDNRLAHRRQTVLREKGRRLANRGPAYMFSDRSTSLSIEEERFLDAAEYGNIPVVRKMLEECHSLNVNCVDYMGQNALQLAVANEHLEITELLLKKENLSRVGDALLLAISKGYVRIVEAILSHPAFAEGKRLATSPSQSELQQDDFYAYDEDGTRFSHDVTPIILAAHCQEYEIVHTLLRKGARIERPHDYFCKCNDCNQKQKHDSFSHSRSRINAYKGLASPAYLSLSSEDPVMTALELSNELAVLANIEKEFKNDYKKLSMQCKDFVVGLLDLCRNTEEVEAILNGDVETLQSGDHGRPNLSRLKLAIKYEVKKFVAHPNCQQQLLSIWYENLSGLRQQTMAVKFLVVLAVAIGLPFLALIYWFAPCSKMGKIMRGPFMKFVAHAASFTIFLGLLVMNAADRFEGTKLLPNETSTDNAKQLFRMKTSCFSWMEMLIISWVIGMIWAECKEIWTQGPKEYLFELWNMLDFGMLAIFAASFIARFMAFWHASKAQSIIDANDTLKDLTKVTLGDNVKYYNLARIKWDPSDPQIISEGLYAIAVVLSFSRIAYILPANESFGPLQISLGRTVKDIFKFMVIFIMVFVAFMIGMFNLYSYYIGAKQNEAFTTVEESFKTLFWAIFGLSEVKSVVINYNHKFIENIGYVLYGVYNVTMVIVLLNMLIAMINSSFQEIEDDADVEWKFARAKLWFSYFEEGRTLPVPFNLVPSPKSLFYLLLKLKKWISELFQGHKKGFQEDAEMNKINEEKKLGILGSHEDLSKLSLDKKQVGHNKQPSIRSSEDFHLNSFNNPPRQYQKIMKRLIKRYVLQAQIDKESDEVNEGELKEIKQDISSLRYELLEEKSQNTEDLAELIRELGEKLSMEPNQEETNR
notes: TRPC6 cation channel; construct and species not described; source: HEK293, transiently transfected, in cells; not shown: YFP or CFP, C-terminal, kept
- FRET efficiency (TRPML3): < 5%

B2: PKD2 (natural protein, UniProt Q13563 1-968, looked up)
chain: MVNSSRVQPQQPGDAKRPPAPRAPDPGRLMAGCAAVGASLAAPGGLCEQRGLEIEMQRIRQAAARDPPAGAAASPSPPLSSCSRQAWSRDNPGFEAEEEEEEVEGEEGGMVVEMDVEWRPGSRRSAASSAVSSVGARSRGLGGYHGAGHPSGRRRRREDQGPPCPSPVGGGDPLHRHLPLEGQPPRVAWAERLVRGLRGLWGTRLMEESSTNREKYLKSVLRELVTYLLFLIVLCILTYGMMSSNVYYYTRMMSQLFLDTPVSKTEKTNFKTLSSMEDFWKFTEGSLLDGLYWKMQPSNQTEADNRSFIFYENLLLGVPRIRQLRVRNGSCSIPQDLRDEIKECYDVYSVSSEDRAPFGPRNGTAWIYTSEKDLNGSSHWGIIATYSGAGYYLDLSRTREETAAQVASLKKNVWLDRGTRATFIDFSVYNANINLFCVVRLLVEFPATGGVIPSWQFQPLKLIRYVTTFDFFLAACEIIFCFFIFYYVVEEILEIRIHKLHYFRSFWNCLDVVIVVLSVVAIGINIYRTSNVEVLLQFLEDQNTFPNFEHLAYWQIQFNNIAAVTVFFVWIKLFKFINFNRTMSQLSTTMSRCAKDLFGFAIMFFIIFLAYAQLAYLVFGTQVDDFSTFQECIFTQFRIILGDINFAEIEEANRVLGPIYFTTFVFFMFFILLNMFLAIINDTYSEVKSDLAQQKAEMELSDLIRKGYHKALVKLKLKKNTVDDISESLRQGGGKLNFDELRQDLKGKGHTDAEIEAIFTKYDQDGDQELTEHEHQQMRDDLEKEREDLDLDHSSLPRPMSSRSFPRSLDDSEEDDDEDSGHSSRRRGSISSGVSYEEFQVLVRRVDRMEHSIGSIVSKIDAVIVKLEIMERAKLKRREVLGRLLDGVAEDERLGRDSEIHREQMERLVREELERWESDDAASQISHGLGTPVGLNGQPRPRSSRPSSSQSTEGMEGAGGNGSSNVHV
notes: PKD2 (TRPP2) cation channel; construct and species not described; also called TRPP2; source: HEK293, transiently transfected, in cells; not shown: YFP or CFP, C-terminal, kept
- FRET efficiency (TRPML3): < 5%

B3: TRPML3 (natural protein)
chain: MANPEVLVSSCRARQDESPCTFHPSSSPSEQLLLEDQMRRKLKFFFMNPCEKFWARGRKPWKLAIQILKIAMVTIQLVLFGLSNQMVVAFKEENTIAFKHLFLKGYMDRMDDTYAVYTQSEVYDQIIFAVTQYLQLQNISVGNHAYENKGTKQSAMAICQHFYRQGTICPGNDTFDIDPEVETECFLVEPDEASHLGTPGENKLNLSLDFHRLLTVELQFKLKAINLQTVRHQELPDCYDFTLTITFDNKAHSGRIKISLDNDISIKECKDWHVSGSIQKNTHYMMIFDAFVILTCLASLVLCARSVIRGLQLQQEFVNFFLLHYKKEVSASDQMEFINGWYIMIIISDILTIVGSVLKMEIQAKSLTSYDVCSILLGTSTMLVWLGVIRYLGFFAKYNLLILTLQAALPNVMRFCCCAAMIYLGYCFCGWIVLGPYHEKFRSLNRVSECLFSLINGDDMFSTFAKMQQKSYLVWLFSRVYLYSFISLFIYMILSLFIALITDTYETIKHYQQDGFPETELRKFIAECKDLPNSGKYRLEDDPPGSLLCCCKK
- whole-cell current density of the novel current at −150 mV in standard bath solution (condition 1), HEK293 cells cotransfected with TRPV5 and TRPML3 (TRPV5 (mouse) [2]): -0.129 nA/pF
- average open time, single channels of cotransfected HEK293 cells, first type of current, condition 1 (TRPV5 (mouse) [3]): 0.4 ms
- average open time, single channels of cotransfected HEK293 cells, second type of current, condition 1 (TRPV5 (mouse) [3]): 0.16 ms
- average open time, single channels of cotransfected HEK293 cells, second type of current, condition 2 (TRPV5 (mouse) [3]): 0.17 ms
- mean open time, single channels of cotransfected HEK293 cells, first type of current, condition 2 (TRPV5 (mouse) [3]): 5.98 ms
- single channel conductance at −150 mV, outside-out patches of cotransfected HEK293 cells, first type of current, condition 1 (TRPV5 (mouse) [3]): 32.3 pS
- single channel conductance, cotransfected HEK293 cells, first type of current, condition 2 (TRPV5 (mouse) [3]): 33.4 pS
- single channel conductance, cotransfected HEK293 cells, second type of current, condition 1 (TRPV5 (mouse) [3]): 34.6 pS
- single channel conductance, cotransfected HEK293 cells, second type of current, condition 2 (TRPV5 (mouse) [3]): 46.7 pS

B4: TRPA1 (natural protein, UniProt O75762 1-1119, looked up)
chain: MKRSLRKMWRPGEKKEPQGVVYEDVPDDTEDFKESLKVVFEGSAYGLQNFNKQKKLKRCDDMDTFFLHYAAAEGQIELMEKITRDSSLEVLHEMDDYGNTPLHCAVEKNQIESVKFLLSRGANPNLRNFNMMAPLHIAVQGMNNEVMKVLLEHRTIDVNLEGENGNTAVIIACTTNNSEALQILLKKGAKPCKSNKWGCFPIHQAAFSGSKECMEIILRFGEEHGYSRQLHINFMNNGKATPLHLAVQNGDLEMIKMCLDNGAQIDPVEKGRCTAIHFAATQGATEIVKLMISSYSGSVDIVNTTDGCHETMLHRASLFDHHELADYLISVGADINKIDSEGRSPLILATASASWNIVNLLLSKGAQVDIKDNFGRNFLHLTVQQPYGLKNLRPEFMQMQQIKELVMDEDNDGCTPLHYACRQGGPGSVNNLLGFNVSIHSKSKDKKSPLHFAASYGRINTCQRLLQDISDTRLLNEGDLHGMTPLHLAAKNGHDKVVQLLLKKGALFLSDHNGWTALHHASMGGYTQTMKVILDTNLKCTDRLDEDGNTALHFAAREGHAKAVALLLSHNADIVLNKQQASFLHLALHNKRKEVVLTIIRSKRWDECLKIFSHNSPGNKCPITEMIEYLPECMKVLLDFCMLHSTEDKSCRDYYIEYNFKYLQCPLEFTKKTPTQDVIYEPLTALNAMVQNNRIELLNHPVCKEYLLMKWLAYGFRAHMMNLGSYCLGLIPMTILVVNIKPGMAFNSTGIINETSDHSEILDTTNSYLIKTCMILVFLSSIFGYCKEAGQIFQQKRNYFMDISNVLEWIIYTTGIIFVLPLFVEIPAHLQWQCGAIAVYFYWMNFLLYLQRFENCGIFIVMLEVILKTLLRSTVVFIFLLLAFGLSFYILLNLQDPFSSPLLSIIQTFSMMLGDINYRESFLEPYLRNELAHPVLSFAQLVSFTIFVPIVLMNLLIGLAVGDIAEVQKHASLKRIAMQVELHTSLEKKLPLWFLRKVDQKSTIVYPNKPRSGGMLFHIFCFLFCTGEIRQEIPNADKSLEMEILKQKYRLKDLTFLLEKQHELIKLIIQKMEIISETEDDDSHCSFQDRFKKEQMEQRNSRWNTVLRAVKAKTHHLEP
notes: TRPA1 cation channel; construct and species not described; source: HEK293, transiently transfected, in cells; not shown: YFP or CFP, C-terminal, kept
- FRET efficiency (TRPML3): < 5%

B5: TRPV2 (natural protein, UniProt Q9Y5S1 1-764, looked up)
chain: MTSPSSSPVFRLETLDGGQEDGSEADRGKLDFGSGLPPMESQFQGEDRKFAPQIRVNLNYRKGTGASQPDPNRFDRDRLFNAVSRGVPEDLAGLPEYLSKTSKYLTDSEYTEGSTGKTCLMKAVLNLKDGVNACILPLLQIDRDSGNPQPLVNAQCTDDYYRGHSALHIAIEKRSLQCVKLLVENGANVHARACGRFFQKGQGTCFYFGELPLSLAACTKQWDVVSYLLENPHQPASLQATDSQGNTVLHALVMISDNSAENIALVTSMYDGLLQAGARLCPTVQLEDIRNLQDLTPLKLAAKEGKIEIFRHILQREFSGLSHLSRKFTEWCYGPVRVSLYDLASVDSCEENSVLEIIAFHCKSPHRHRMVVLEPLNKLLQAKWDLLIPKFFLNFLCNLIYMFIFTAVAYHQPTLKKQAAPHLKAEVGNSMLLTGHILILLGGIYLLVGQLWYFWRRHVFIWISFIDSYFEILFLFQALLTVVSQVLCFLAIEWYLPLLVSALVLGWLNLLYYTRGFQHTGIYSVMIQKVILRDLLRFLLIYLVFLFGFAVALVSLSQEAWRPEAPTGPNATESVQPMEGQEDEGNGAQYRGILEASLELFKFTIGMGELAFQEQLHFRGMVLLLLLAYVLLTYILLLNMLIALMSETVNSVATDSWSIWKLQKAISVLEMENGYWWCRKKQRAGVMLTVGTKPDGSPDERWCFRVEEVNWASWEQTLPTLCEDPSGAGVPRTLENPVLASPPKEDEDGASEENYVPVQLLQSN
notes: TRPV2 cation channel; construct and species not described; source: HEK293, transiently transfected, in cells; not shown: YFP or CFP, C-terminal, kept
- FRET efficiency (TRPML3): < 5%

Reference: publication PMC3585263, “A Novel Ion Channel Formed by Interaction of TRPML3 with TRPV5” (PLoS ONE, 2013)
